Biological target: heavy subunit of rat kidney gamma-glutamylcysteine synthetase (rat)

Apparent Km for glutamate (mM), co-expressed recombinant holoenzyme: 1.8 mM
Apparent Km for glutamate (mM), recombinant holoenzyme made by mixing the separately expressed subunits: 2.8 mM
Substance: light subunit of rat kidney gamma-glutamylcysteine synthetase (enzyme)

From patent publication US5747329
